± gives the standard deviation.

A short description of this data set: protein stability index of a GFP-peptide fusion (GPS, HEK-293T) (PSI 1-6); higher = more stable.
Setting [1] is: treatment: DMSO, c terminus: a fixed tail appended.
[2] abbreviates: treatment: MLN4924 1 uM, 8 h, c terminus: a fixed tail appended.
Where [3] appears, read: treatment: DMSO, c terminus: native.
[4] abbreviates: treatment: MLN4924 1 uM, 8 h, c terminus: native.
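Note: 24-mer peptide tiles fused after GFP, lentivirally expressed, FACS-sorted into six equal bins by GFP/DsRed ratio, decoded by Illumina sequencing, PSI is the read-weighted mean bin number.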

For GFSSGRHRWQVDLQLGDGGGCTVG [TRIM15], the protein stability index reads like this: under setting [1], 2.93 ± 0.29; under setting [2], 3.07 ± 0.27.

Regarding GFTSYLGFGDEDTGLELIAEESNP [MIA2], under setting [1], the protein stability index worked out at 4.61 ± 0.22.

On to GGGREPQGLAEKSPLQTIGEEQTQ [WDR41], for which the protein stability index runs as follows: under setting [1], 5.31 ± 0.26; under setting [2], 5.58 ± 0.17.

For GGIIAPFIPSLKYVQWSLPFIVFG [SLC22A15], the protein stability index is 2.75 ± 0.39 under setting [1] and 2.86 ± 0.32 under setting [2].

GGQDSFESIESYDSCDRLTQSWSS [ETS1] returned a protein stability index under setting [1] of 3.68 ± 0.67 and a protein stability index under setting [2] of 3.84 ± 0.3.

Consider GIREASSGGGGSSSNFHINVEESV [KRT15], for which the protein stability index is 4.92 ± 0.18 under setting [1] and 5.11 ± 0.28 under setting [2].

For GKPLYLIFRNLCQMQEDNSSFSLL [INTS3], the protein stability index reads like this: under setting [1], 2.37 ± 0.41; under setting [2], 2.28 ± 0.38.

For the sequence GKRPSQEEDTQSIGPKVQRQSTN [CRY1], the protein stability index is, setting by setting: under setting [3], 5.35 ± 0.28; under setting [4], 5.45 ± 0.11.

In the case of GKSFSQNTNLHTHQRTHTGEKPFT [ZNF75A], the protein stability index is, setting by setting: under setting [1], 4.01 ± 0.28; under setting [2], 4.25 ± 0.35.

Regarding GKTPVCHQCHKVIRGRYLVALGHA [PDLIM7], the protein stability index by setting is: under setting [1], 2.1 ± 0.1; under setting [2], 2.72 ± 0.33.

Regarding GLALESSSGLQDVTGPDNGVRESE [NFE2L1], the protein stability index turned out to be 5.57 ± 0.36 under setting [1] and 5.53 ± 0.28 under setting [2].

With GLALGGGLELALACDIRVAASSAK [AUH], the protein stability index runs as follows: under setting [1], 2.67 ± 0.4; under setting [2], 2.9 ± 0.23.

In the case of GLKKLNLHEEEHVLLMAICIVSPD [VDR], the protein stability index came out at 3.13 ± 0.57 under setting [1] and 2.83 ± 0.54 under setting [2].

In turn, GLRRVLDELTLARTDLEMQIEGLN [KRT15] registered a protein stability index under setting [1] of 2.71 ± 0.3 and a protein stability index under setting [2] of 2.66 ± 0.19.

Take GLSIPSHSSELTEQKLRACLEGSI [RPAIN]: the protein stability index by setting is: under setting [1], 3.63 ± 0.39; under setting [2], 3.53 ± 0.24.

Consider GLSLTDESDSCVSFEAPLTPLIQQ [PSD2], for which the protein stability index came to 4.29 ± 0.35 under setting [1] and 4.15 ± 0.29 under setting [2].

For the sequence GNEEEESKIFTTLDPASLAWLTEE [DDIT3], the protein stability index was found to be 5.06 ± 0.2 under setting [1] and 5.09 ± 0.14 under setting [2].

In the case of GNGVHVCNVKYKRWALLSCRGKKP [KLHDC10], the protein stability index is, setting by setting: under setting [1], 2.73 ± 0.35; under setting [2], 2.94 ± 0.27.

Sequence GNLNIHQRTHTGEKPYGCIDCGKA [ZNF649] displayed a protein stability index under setting [1] of 3.96 ± 0.38 and a protein stability index under setting [2] of 4.14 ± 0.4.

Regarding GNRINVPMVRKRSVSNSTQTSSSS [DLC1], the protein stability index amounted to 4.44 ± 0.13 under setting [1] and 4.65 ± 0.2 under setting [2].

For the sequence GPEPPPVYTNLSSYSPASASSGGA [JUNB], the protein stability index under setting [1] is 4.6 ± 0.5 and the protein stability index under setting [2] came out at 4.76 ± 0.3.

For GPSEPGGTHPEDHQGHSDQHHHHH [RHOBTB2], the protein stability index is 5.65 ± 0.073 under setting [1] and 5.32 ± 0.24 under setting [2].

Turning to GPVAGLDDSGGPTPSSYAPSHPPR [ZBTB22], the protein stability index by setting is: under setting [1], 4.92 ± 0.15; under setting [2], 4.79 ± 0.13.

For GQEYAAKIINTKKLSARDHQKLER [CAMK2D], the protein stability index worked out at 3.96 ± 0.58 under setting [1] and 3.82 ± 0.096 under setting [2].

Turning to GQGGKLWDPSVQSCKEGLSPRGPA [ZNF263], the protein stability index by setting is: under setting [1], 3.9 ± 0.12; under setting [2], 4.08 ± 0.16.

Turning to GQPSEPEHGPSPGQDTFCQGKADG [CHIT1], the protein stability index runs as follows: under setting [1], 5.45 ± 0.32; under setting [2], 5.63 ± 0.23.

GRCGPQAARAAGRDVAAEAVARSP [POMT2]: the protein stability index under setting [1] turned out to be 4 ± 0.35 and the protein stability index under setting [2] amounted to 3.63 ± 0.15.

GRDALLDQIRQGIQLKSVADGQES [WASL]: the protein stability index amounted to 5.43 ± 0.36 under setting [1] and 5.22 ± 0.63 under setting [2].

Turning to GRDGYDYDGYRLRVEFPRSGRGTG [SRSF1], the protein stability index by setting is: under setting [1], 3.17 ± 0.37; under setting [2], 3.26 ± 0.36.

As to GRGLKSHAYIHSVQFSHHVFLNLH [USP39], the protein stability index runs as follows: under setting [1], 2.84 ± 0.45; under setting [2], 2.62 ± 0.65.

On to GRYSVHNAGISFSVKKQGETVADV [MLH1], for which the protein stability index runs as follows: under setting [1], 3.79 ± 0.25; under setting [2], 3.85 ± 0.37.

Consider GSGAASSSGEDKENDGFVFKMPWK [CDC25B], for which the protein stability index worked out at 4.025 ± 0.022 under setting [1] and 4.37 ± 0.34 under setting [2].

With GSLPWQGLKADTLKERYQKIGDTK [CSNK1G1], the protein stability index reads like this: under setting [1], 4.05 ± 0.083; under setting [2], 4.19 ± 0.29.

Take GSPFGLEEPQWVPDKECRRCMQCD [ZFYVE21]: the protein stability index is, setting by setting: under setting [1], 4.1 ± 0.29; under setting [2], 4.07 ± 0.28.

For the sequence GSSIPWNHLPDPEIFRQRFRQFGY [ZNF24], the protein stability index reads like this: under setting [1], 2.49 ± 0.25; under setting [2], 2.66 ± 0.14.

As for GTENGAIDAVPVDENLFTGEDLDE [ZC3H15], the protein stability index was found to be 5.7 ± 0.3 under setting [1] and 5.52 ± 0.44 under setting [2].

As for GTIKKIIHQETVSKNGNGLKNTPR [PCMTD2], the protein stability index was 3.68 ± 0.55 under setting [1] and 4.03 ± 0.4 under setting [2].

With GWRSLWLGWGPTALRDVPFSALYW [SLC25A39], the protein stability index by setting is: under setting [1], 2.22 ± 0.41; under setting [2], 2.99 ± 0.76.

Turning to HADILAAVETRLSLLNMTFMKYVD [FBXO28], the protein stability index by setting is: under setting [1], 2.84 ± 0.69; under setting [2], 2.75 ± 0.65.

On to HENETLASLKSEAESLKGKLEEER [GNB5], for which the protein stability index runs as follows: under setting [1], 5.29 ± 0.33; under setting [2], 5.34 ± 0.33.

HFFALKVMSIPDVIRLKQEQHVHN [PRKX]: the protein stability index was found to be 2.25 ± 0.28 under setting [1] and 2.17 ± 0.1 under setting [2].

For HFKPHGFSSDKAKAGSSEWLAVDG [ATF4], the protein stability index reads like this: under setting [1], 3.89 ± 0.18; under setting [2], 3.91 ± 0.17.

With HGEEQRITIEPGTSYRLQGLKPNS [PTPRD], the protein stability index reads like this: under setting [1], 4.4 ± 0.18; under setting [2], 4.67 ± 0.29.

Turning to HLALHAASSGDLTCGVCALELGST [PLAGL1], the protein stability index was 3.01 ± 0.48 under setting [1] and 2.93 ± 0.24 under setting [2].

As to HMEDPRRAGKMLMTLPLLRQTSTK [ESRRG], the protein stability index under setting [1] was 3.63 ± 0.16 and the protein stability index under setting [2] was determined as 3.7 ± 0.28.

Take HNDLWESWFVPDPAGIFKLNHHS [GLT8D2]: the protein stability index runs as follows: under setting [3], 2.87 ± 0.15; under setting [4], 2.9 ± 0.41.

Turning to HNQVEAAWLEGRIRQEFDKLREFL [TRIM35], the protein stability index is, setting by setting: under setting [1], 3.5 ± 0.52; under setting [2], 3.75 ± 0.48.

As to HPDPAPFCADNPSELPPPMERTGG [DVL3], the protein stability index reads like this: under setting [1], 3.41 ± 0.55; under setting [2], 4.17 ± 0.49.

As to HRQETVECLKKFNARRKLKGAILT [CAMK2B], the protein stability index reads like this: under setting [1], 2.79 ± 0.24; under setting [2], 2.98 ± 0.29.

For the sequence HSALGGTKKKKKTIVTDVFQGSMR [USP39], the protein stability index stood at 4.02 ± 0.4 under setting [1] and 4.14 ± 0.058 under setting [2].

On to HSLTPVSSDHLFLFGGFTTDKQPL [KLHDC2], for which the protein stability index was 2.95 ± 0.46 under setting [1] and 3.21 ± 0.27 under setting [2].

As for HSSELTEQKLRACLEGSINEHSAH [RPAIN], the protein stability index worked out at 4.55 ± 0.26 under setting [1] and 4.44 ± 0.12 under setting [2].

Take HWKTWLAIKCSPSLHVDDRERMEL [RIPK4]: the protein stability index is, setting by setting: under setting [1], 2.38 ± 0.26; under setting [2], 2.53 ± 0.58.

Regarding HWTSAPLTEASAHSHPPEIKDQGG [MAP2], the protein stability index is 5.14 ± 0.14 under setting [1] and 5.18 ± 0.18 under setting [2].

On to HYLIFDLVTGGELFEDIVAREYYS [CAMK2A], for which the protein stability index by setting is: under setting [1], 2.71 ± 0.72; under setting [2], 2.54 ± 0.66.

ICFKEMLANSWNCLPKHLLHSVNQ [KLHDC2]: the protein stability index runs as follows: under setting [1], 2.73 ± 0.43; under setting [2], 2.63 ± 0.65.

Turning to ICGIICIGPNVLMVHKRSHTGERP [IKZF1], the protein stability index under setting [1] came to 2.46 ± 0.28 and the protein stability index under setting [2] turned out to be 2.02 ± 0.38.

IDDLFAFVIKMPVMYRIGCLRDDV [CLPTM1]: the protein stability index runs as follows: under setting [1], 3.07 ± 0.97; under setting [2], 3.2 ± 0.74.

In the case of IEKCTTPLSDDHDEKYGVPSLEEL [CRY1], the protein stability index runs as follows: under setting [1], 5.11 ± 0.25; under setting [2], 5.14 ± 0.18.

Take IEKFIREPSLKATMGLAGRARVKE [ALG2]: the protein stability index is 3.6 ± 0.18 under setting [1] and 3.62 ± 0.33 under setting [2].

As for IERGASLEEVNDEGYTPLMEAARE [ANKRD17], the protein stability index worked out at 5.34 ± 0.23 under setting [1] and 5.06 ± 0.21 under setting [2].

In the case of IFQIGVLGFGPTYVVLAYTLPPAS [SOAT1], the protein stability index was 2.97 ± 0.27 under setting [1] and 3.23 ± 0.68 under setting [2].

For the sequence IGHFNTASGVGFILGPVVGGYLTE [MFSD9], the protein stability index under setting [1] worked out at 2.38 ± 0.53 and the protein stability index under setting [2] was 2.31 ± 0.39.

On to IHIIDFGLAKEYIDPETKKHIPYR [CSNK1G3], for which the protein stability index is, setting by setting: under setting [1], 2.1 ± 0.36; under setting [2], 2.33 ± 0.17.

In the case of IINTKKLSARDHQKLEREARICRL [CAMK2A], the protein stability index runs as follows: under setting [1], 3.19 ± 0.23; under setting [2], 3.27 ± 0.25.

Take ILDTDEYVLKYMESNAAQYSPEAL [EFHC1]: the protein stability index under setting [1] came to 3.99 ± 0.31 and the protein stability index under setting [2] is 3.96 ± 0.38.

For ILENTSKVPAPKDVLAHQVPNAKK [NOP53], the protein stability index runs as follows: under setting [1], 4.23 ± 0.27; under setting [2], 4.43 ± 0.16.

With ILEVLRSSPMVQVDEKGEKVRPSH [LARP4], the protein stability index runs as follows: under setting [1], 3.61 ± 0.27; under setting [2], 3.71 ± 0.12.

With ILFYCHFPDLLLTKRDSFLKRLYR [ALG2], the protein stability index runs as follows: under setting [1], 2.81 ± 0.6; under setting [2], 2.18 ± 0.51.

For ILINNGSRIKGWWVFHHYVSTFLS [TMEM120A], the protein stability index reads like this: under setting [1], 2.17 ± 0.64; under setting [2], 2.38 ± 0.42.

ILNPHVHVIGEDAACIAYIRLTQY [CAMK2B]: the protein stability index reads like this: under setting [1], 2.51 ± 0.63; under setting [2], 2.31 ± 0.27.

As for ILTLPEMMRMFSENLAHHLEIDSG [TRIM15], the protein stability index reads like this: under setting [1], 2.44 ± 0.3; under setting [2], 2.44 ± 0.31.

The record behind these values is the supplement of paper PMC10567573.
